Here are results for 15 molecules from patent US6025158A, “Nucleic acids encoding humanized anti-IL-8 monoclonal antibodies” (Genentech, Inc., dated 2000).

Test [1] deals with T1, recombinant human IL-8, (ser-IL-8)72 (human, UniProt P10145). Put plainly: inhibition of 125I-IL-8 binding to human neutrophils.
In another test the target is IL-8 (Homo sapiens, UniProt P10145). The experiment in a line: human (wild type) IL-8 mediated neutrophil chemotaxis. Format: cell-based. As to the method:
Human neutrophils were isolated, counted and resuspended at 5×10^6 cells/ml in Hank's balanced salt solution (abbreviated HBSS; without calcium and magnesium) with 0.1% bovine serum albumin. The neutrophils were labeled by adding calcein AM (Molecular Probe, Eugene, Oreg.) at a final concentration of 2.0 μM. Following a 30 minute incubation at 37° C., cells were washed twice with HBSS-BSA and resuspended at 5×10^6 cells/ml.
Chemotaxis experiments were carried out in a Neuro Probe (Cabin John, Md.) 96-well chamber, model MBB96. […] 100 μl of the calcein AM-labeled neutrophils were added to the upper chambers and allowed to migrate through a 5 micrometer porosity PVP free polycarbonate framed filter (Neuro Probe Inc.) toward the bottom chamber sample. The chemotaxis apparatus was then incubated for 40 to 60 minutes at 37° C. with 5% CO2. At the end of the incubation, neutrophils remaining in the upper chamber were aspirated and upper chambers were washed three times with PBS. Then the polycarbonate filter was removed, non-migrating cells were wiped off with a squeegee wetted with PBS, and the filter was air dried for 15 minutes.
The relative number of neutrophils migrating through the filter (Neutrophil migration index) was determined by measuring fluorescence intensity of the filter and the fluorescence intensity of the contents of the lower chamber and adding the two values together. Fluorescence intensity was measured with a CytoFluor 2300 fluorescent plate reader (Millipore Corp. Bedford, Mass.) configured to read a Corning 96-well plate using the 485-20 nm excitation filter and a 530-25 emission filter, with the sensitivity set at 3.
The affinity matured Fab variant, 6G4V11N35E, was tested for its ability to inhibit IL-8 mediated neutrophil chemotaxis as described in Section (B)(2) above. The reuseable 96-well chemotaxis chamber described in Section (B)(2) was replaced with endotoxin-free disposable chemotaxis chambers containing 5-micron PVP-free polycarbonate filters (ChemoTx101-5, Neuro Probe, Inc. Cabin John, Md.).

Test [2] has as its target T1, recombinant human IL-8, (ser-IL-8)72.
In test [3] the target is human monomeric IL-8 (human).
For the next test, the target named is rhesus IL-8 (rhesus, UniProt P67813). Put plainly: cell-based or functional assay.
Test [4] deals with T1, recombinant human IL-8, (ser-IL-8)72. The experiment in a line: competition phage ELISA (K64C IL-8 coated, free IL-8). The source says:
The first step of the assay requires that the concentrations of the phage carrying the wild type and mutated antibodies be normalized, allowing a comparison of the relative affinities of each antibody.

For test [5] the target is unchanged. This is another data set of the same source.
Test [6] addresses human monomeric IL-8 (human). This is another data set of the same source.
Another test deals with T2, rabbit IL-8 (rabbit, UniProt P19874).
T2 sequence: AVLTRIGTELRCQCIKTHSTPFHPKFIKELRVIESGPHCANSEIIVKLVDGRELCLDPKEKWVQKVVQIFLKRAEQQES
Put plainly: cell-based or functional assay.

In test [7] the target is T1, recombinant human IL-8, (ser-IL-8)72. The source holds these as a separate data set.
The target is the same in test [8]. Put plainly: competitive binding RIP, Scatchard.
For test [9] the target is unchanged. The experiment in a line: 125I-IL-8 neutrophil competition; against F(ab)-1.
Test [10] shares this target. The experiment in a line: inhibition of 125I-IL-8 binding to human neutrophils. The source holds these as a separate data set.
The target in test [11] is IL-8 binding to IL-8 receptors on human neutrophils (Homo sapiens, UniProt P10145). Put plainly: inhibition of 125I-IL-8 binding to human neutrophils (competition binding assay). As to conditions: for IC50: humanized 6G425 variants, Table 4, read-out: IC50 Mean (concentration of variant necessary to inhibit binding of iodinated IL8 to human neutrophils).

Where a chain is given by its changes, count along the chain named. Names and notes keep the numbering of the source. Read-outs that look alike come from different tables or passages of the source.

Turning to rhu4D5 F(ab) (Fab), the IC50 in test [1] was greater than 200000 nM.

B1: 5.12.14 Fab: recombinant human-murine chimeric Fab of 5.12.14 (protein)
light: DIVMTQSQKFMSTSVGDRVSVTCKASQNVGTNVAWYQQKPGQSPKALIYSSSYRYSGVPDRFTGSGSGTDFTLTISHVQSEDLADYFCQQYNIYPLTFGPGTKLELRRAVAAPSVFIFPPSDEQLKSGTASVVCLLNNFYPREAKVQWKVDNALQSGNSQESVTEQDSKDSTYSLSSTLTLSKADYEKHKVYACEVTHQGLSSPVTKSFNRGEC
heavy: EVQLVESGGGLVPPGGSLKLSCAASGFIFSSYGMSWVRQTPGKSLELVATINNNGDSTYYPDSVKGRFTISRDNAKNTLYLQMSSLKSEDTAMFYCARALISSATWFGYWGQGTLVTVSAASTKGPSVFPLAPSSKSTSGGTAALGCLVKDYFPEPVTVSWNSGALTSGVHTFPAVLQSSGLYSLSSVVTVPSSSLGTQTYICNVNHKPSNTKVDKKVEPKSCDKTHT
B1: in the test with IL-8, the “inhibition of human IL-8 mediated neutrophil chemotaxis / migration” value was “demonstrates the inhibition of human IL-8 mediated neutrophil chemotaxis”.

B2: humanized 6G425 F(ab)-9 (Fab, V domains shown)
VH: EVQLVQSGGGLVQPGGSLRLSCAASGYSFSSHYMHWVRQAPGKGLEWVGYIDPSNGETTYNQKFKGRFTLSRDNSKNTAYLQMNSLRAEDTAVYYCARGDYRYNGDWFFDVWGQGTLVTVSS
VL: DIQMTQSPSSLSASVGDRVTITCRSSQSLVHGIGNTYLHWYQQKPGKAPKLLIYKVSNRFSGVPSRFSGSGSGTDFTLTISSLQPEDFATYYCSQSTHVPLTFGQGTKVEIKR
B2: the results for the IC50, IL-8 mediated neutrophil chemotaxis (in [2]; in [3]; in the test with rhesus IL-8) were 12 nM, 15 nM and roughly 22 nM, respectively.

B3: h6G4V11 alanine mutant H98A (CDR-L3) (Fab, V domains shown)
VH: B2 VH
VL: B2 VL with H98A
B3: the IC50 in test [4] came out at 8 nM.

B4: humanized 6G425 F(ab)-8 (Fab, V domains shown)
VH: B2 VH with Q6E, R38K
VL: B2 VL
With B4, the “IC50, IL-8 mediated neutrophil chemotaxis” value with rhesus IL-8 came to 10 nM.

B5: h6G4V11 alanine mutant Y37A (CDR-L1) (Fab, V domains shown)
VH: B2 VH
VL: B2 VL with Y37A
On to B5, for which, in [4], the binding result is reported as “no binding”.

B6: 6G4V11N35A F(ab')2 leucine zipper (antibody, V domains shown)
VH: B2 VH
VL: B2 VL with N35A
Take B6: the IC50, human IL-8 mediated neutrophil chemotaxis in test [5] stood at 1.5 nM. In addition, the IC50, IL-8 mediated neutrophil chemotaxis turned out to be 1 nM in [6] and 4 nM with rabbit IL-8.

B7: monoclonal antibody 5.12.14 (antibody, V domains shown)
VH: EVQLVESGGGLVPPGGSLKLSCAASGFIFSSYGMSWVRQTPGKSLELVATINNNGDSTYYPDSVKGRFTISRDNAKNTLYLQMSSLKSEDTAMFYCARALISSATWFGYWGQGTLVTVSA
VL: DIVMTQSQKFMSTSVGDRVSVTCKASQNVGTNVAWYQQKPGQSPKALIYSSSYRYSGVPDRFTGSGSGTDFTLTISHVQSEDLADYFCQQYNIYPLTFGPGTKLELKR
Consider B7, for which the neutrophil chemotaxis induced by IL-8 (Boyden chamber) in test [7] was determined as 70%. In test [8], the dissociation constant (Kd) stood at 0.3 nM.

B8: 6G4.2.5 Fab: recombinant human-murine chimeric Fab of 6G4.2.5 (protein)
light: DIVMTQTPLSLPVSLGDQASISCRSSQSLVHGIGNTYLHWYLQKPGQSPKLLIYKVSNRFSGVPDRFSGSGSGTDFTLRISRVEAEDLGLYFCSQSTHVPLTFGAGTKLELKRAVAAPTVFIFPPSSEQLKSGTASVVCLLNNFYPREAKVQWKVDNALQSGNSQESVTEQDSKDSTYSLSSTLTLSKADYEKHKVYACEVTHQGLSSPVTKSFNRGEC
heavy: EIQLQQSGPELMKPGASVKISCKASGYSFSSHYMHWVKQSHGKSLEWIGYIDPSNGETTYNQKFKGKATLTVDTSSSTANVHLSSLTSDDSAVYFCARGDYRYNGDWFFDVWGAGTTVTVSSASTKGPSVFPLAPSSKSTSGGTAALGCLVKDYFPEPVTVSWNSGALTSGVHTFPAVLQSSGLYSLSSVVTVPSSSLGTQTYICNVNHKPSNTKVDKKVEPKSCDKTHT
Turning to B8, in the test with IL-8, the “inhibition of human IL-8 mediated neutrophil chemotaxis / migration” value was “demonstrates the inhibition of human IL-8 mediated neutrophil chemotaxis”.

B9: humanized 6G425 F(ab)-2 (Fab, V domains shown)
VH: EVQLVESGGGLVQPGGSLRLSCAASGYSFSSHYMHWVRQAPGKGLEWVGYIDPSNGETTYNQKFKGRATISRDNSKNTLYLQMNSLRAEDTAVYYCAARGDYRYNGDWFFDVWGQGT
VL: DIQMTQSPSSLSASVGDRVTITCRSSQSLVHGIGNTYLHWYQQKPGKAPKLLIYYKVSNRFSGVPSRFSGSGSGTDFTLTISSLQPEDFATYYCSQSTHVPLTFGQGTKVEIKR
Consider B9, for which the “fold decrease in IL-8 binding” value in test [9] was less than 2 fold. The IC50 in [10] is 106 nM.

B10: humanized 6G425 F(ab)-3 (Fab, V domains shown)
VH: B9 VH with A68F, R72V
VL: B9 VL
Regarding B10, the “fold decrease in IL-8 binding” value in test [9] is less than 2 fold. Moreover, the IC50 in test [10] worked out at 79.8 nM.

B11: F(ab)-7: humanized variant, F(ab)-6 with LeuH80Val (antibody, V domains shown)
VL: B9 VL
VH: B9 VH with A68F, I70L, L79A, L81V
Turning to B11, the IC50 in test [11] was 38.4 nM.

B12: F(ab)-6: humanized variant, F(ab)-1 with IleH69Leu and LeuH78Ala (antibody, V domains shown)
VL: B9 VL
VH: B9 VH with A68F, I70L, L79A
On to B12, for which, in test [11] (compared to F(ab)-1), the “increase in affinity for IL-8” value is listed as “approximately 2 fold”. Further, the IC50 in test [11] came to 34.6 nM.

B13: F(ab)-8: humanized variant, F(ab)-6 with ArgH38Lys (protein)
light: DIQMTQSPSSLSASVGDRVTITCRSSQSLVHGIGNTYLHWYQQKPGKAPKLLIYKVSNRFSGVPSRFSGSGSGTDFTLTISSLQPEDFATYYCSQSTHVPLTFGQGTKVEIKRTVAAPSVFIFPPSDEQLKSGTASVVCLLNNFYPREAKVQWKVDNALQSGNSQESVTEQDSKDSTYSLSSTLTLSKADYEKHKVYACEVTHQGLSSPVTKSFNRGEC
heavy: EVQLVESGGGLVQPGGSLRLSCAASGYSFSSHYMHWVKQAPGKGLEWVGYIDPSNGETTYNQKFKGRFTLSRDNSKNTAYLQMNSLRAEDTAVYYCARGDYRYNGDWFFDVWGQGTLVTVSSASTKGPSVFPLAPSSKSTSGGTAALGCLVKDYFPEPVTVSWNSGALTSGVHTFPAVLQSSGLYSLSSVVTVPSSSLGTQTYICNVNHKPSNTKVDKKVEPKSCDKTHT
Consider B13, for which the IC50 in the test with IL-8 (read-out: IC50, human wild type IL-8 mediated neutrophil chemotaxis) was found to be 12 nM.

B14: 6G4V11N35E Fab: affinity matured variant of humanized 6G4V11 Fab with Glu at position 35 of CDR-L1 (protein)
light: B13 light with N35E
heavy: B13 heavy with E6Q, K38R
Consider B14, for which the IC50 with IL-8 (2 nM IL-8, disposable chemotaxis chambers, read-out: IC50, human IL-8 mediated neutrophil chemotaxis) is roughly 1.2 nM. In addition, in the test with IL-8 (2 nM stimulus of rabbit or human IL-8, compared with buffer control), the “inhibition of chemotaxis at 3.7 nM-33 nM” value is reported as “could completely inhibit this response”.
